Among the data in article PMC5358782, “Affinity purification of human m-calpain through an intrinsically disordered inhibitor, calpastatin” (PLoS ONE, 2017) are Kd values, retold here.

The test deals with inactive C105A human m-calpain heterodimer (C105A large subunit with truncated small subunit) (human, UniProt P17655 20-700; P04632 1-268, C105A, Ca2+-bound during hCSD1 binding. C-terminal His tag of the large subunit omitted. The ΔG2 small-subunit limits are not printed (they are in the cited Hata 2012 paper); the 184-residue small subunit of). In words: BLI; GST-immobilized hCSD1; purified C105A-calpain from the affinity method in solution. To be noted: both partners purified.

B1: N-terminal glutathione S-transferase-tagged human calpastatin domain 1 (domain or fragment, UniProt P20810 137-277, looked up)
chain: AVPVESKPDKPSGKSGMDAALDDLIDTLGGPEETEEENTTYTGPEVSDPMSSTYIEELGKREVTIPPKYRELLAKKEGITGPPADSSKPIGPDDAIDALSSDFTCGSPTAAGKKTEKEESTEVLKAQSAGTVRSAAPPQEK
notes: synthetic gene in pGEX-4T-1; GST is fused N-terminally through a linker; the tag can be removed by thrombin; also called GST-hCSD1; GST-tagged hCSD1; source: E. coli BL21(DE3), purified (GSTrap FF); not shown: GST, N-terminal, kept
B1 registered a dissociation constant Kd of 1.7 nM.
